In patent US20150139990A1 (DAINIPPON SUMITOMO PHARMA, published 2015):

T1: human CD81 mutant D137A (human, UniProt P60033 1-236, limits assumed)
T1 construct: as m30; not shown: C-terminal V5 and 6xHis tags
T1 sequence: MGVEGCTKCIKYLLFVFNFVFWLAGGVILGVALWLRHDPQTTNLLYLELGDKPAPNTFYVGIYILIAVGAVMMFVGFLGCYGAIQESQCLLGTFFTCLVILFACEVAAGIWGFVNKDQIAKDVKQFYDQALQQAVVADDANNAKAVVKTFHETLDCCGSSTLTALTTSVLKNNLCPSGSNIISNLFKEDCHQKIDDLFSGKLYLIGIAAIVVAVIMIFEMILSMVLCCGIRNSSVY

T2: human CD81 mutant G158S (human, UniProt P60033 1-236, limits assumed)
T2 construct: as m30; not shown: C-terminal V5 and 6xHis tags
T2 sequence: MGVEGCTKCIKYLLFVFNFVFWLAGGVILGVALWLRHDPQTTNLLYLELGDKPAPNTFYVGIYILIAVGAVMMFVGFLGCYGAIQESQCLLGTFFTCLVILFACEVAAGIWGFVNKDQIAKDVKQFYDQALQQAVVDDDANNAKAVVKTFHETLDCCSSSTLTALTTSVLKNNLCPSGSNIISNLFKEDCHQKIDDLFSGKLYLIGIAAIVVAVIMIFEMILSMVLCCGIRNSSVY

T3: human CD81 mutant A164T (human, UniProt P60033 1-236, limits assumed)
T3 construct: as m30; not shown: C-terminal V5 and 6xHis tags
T3 sequence: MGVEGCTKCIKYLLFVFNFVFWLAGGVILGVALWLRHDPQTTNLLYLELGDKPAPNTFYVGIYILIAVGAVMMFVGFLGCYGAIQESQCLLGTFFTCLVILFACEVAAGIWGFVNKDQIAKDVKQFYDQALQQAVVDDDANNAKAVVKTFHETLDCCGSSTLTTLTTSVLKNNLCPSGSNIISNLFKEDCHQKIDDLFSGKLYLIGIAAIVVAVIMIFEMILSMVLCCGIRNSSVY

T4: human CD81 mutant L165A (human, UniProt P60033 1-236, limits assumed)
T4 construct: as m30; not shown: C-terminal V5 and 6xHis tags
T4 sequence: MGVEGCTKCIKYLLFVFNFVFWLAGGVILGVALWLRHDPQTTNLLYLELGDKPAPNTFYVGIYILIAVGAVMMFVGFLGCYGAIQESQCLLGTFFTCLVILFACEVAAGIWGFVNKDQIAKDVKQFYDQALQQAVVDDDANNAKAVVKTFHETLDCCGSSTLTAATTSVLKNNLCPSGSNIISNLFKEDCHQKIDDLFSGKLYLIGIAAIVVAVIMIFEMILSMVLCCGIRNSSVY

T5: human CD81 on CD81-expressing cells (Jurkat E6.1, human PBMC, Ramos) (human, UniProt P60033 1-236)
T5 construct: endogenous CD81 of the cells; also called wild type human CD81
T5 sequence: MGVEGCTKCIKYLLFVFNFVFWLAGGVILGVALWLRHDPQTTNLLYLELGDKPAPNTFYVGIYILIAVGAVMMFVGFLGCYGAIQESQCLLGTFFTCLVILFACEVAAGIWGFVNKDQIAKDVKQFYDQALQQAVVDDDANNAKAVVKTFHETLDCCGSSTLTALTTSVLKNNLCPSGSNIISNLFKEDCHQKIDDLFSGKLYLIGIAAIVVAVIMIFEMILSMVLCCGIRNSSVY

T6: human CD81 mutant N172A (human, UniProt P60033 1-236, limits assumed)
T6 construct: as m30; not shown: C-terminal V5 and 6xHis tags
T6 sequence: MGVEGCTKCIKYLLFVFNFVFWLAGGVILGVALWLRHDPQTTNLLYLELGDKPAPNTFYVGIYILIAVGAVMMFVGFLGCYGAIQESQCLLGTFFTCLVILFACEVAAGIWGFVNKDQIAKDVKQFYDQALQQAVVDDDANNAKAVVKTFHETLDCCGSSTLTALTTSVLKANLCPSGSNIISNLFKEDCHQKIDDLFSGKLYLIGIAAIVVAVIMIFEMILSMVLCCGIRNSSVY


Key:
human CD81 mutant D137A = target: T1, human CD81 mutant D137A; test: ELISA
Summary of the method: (§1)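 Relative binding affinity was taken as the percentage of binding to unmodified CD81, corrected for V5-tag expression. The altered CD81 proteins, tagged with V5 and 6×His, were expressed in CHO cells for 48 hours, and 1% n-octylglucoside membrane extracts were loaded onto Ni-NTA His Sorb plates at 5 μg/100 μL/well (3 hours, 4° C). After 1 hour of antibody binding at room temperature, detection used HRP anti-human IgG4 with TMB at 450 nm.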

human CD81 mutant G158S = target: T2, human CD81 mutant G158S; test: ELISA
Summary of the method: as §1

human CD81 mutant A164T = target: T3, human CD81 mutant A164T; test: ELISA
Summary of the method: as §1

human CD81 mutant L165A = target: T4, human CD81 mutant L165A; test: ELISA
Summary of the method: as §1

[1] = target: T5, human CD81 on CD81-expressing cells …; test: flow cytometry, human PBMC
Excerpt: (§2) Based on known information (JOURNAL OF VIROLOGY., 79, 4316-4328, 2005), Jurkat E6.1 cells and human PBMC (Peripheral Blood Mononuclear cells) were used as human CD81-expressing cells to confirm binding of the antibodies of the present invention obtained in Example 1 to the human CD81-expressing cells. Jurkat E6.1 cells were purchased from European Collection of Cell Cultures (ECACC) (Cat No. 88042803). Human PBMC were purchased from KAC Co., Ltd. (KAC). These cells were collected by centrifugation (4,000 rpm, 3 min, 4° C.) and suspended in FACS staining buffer (phosphate buffer, 0.09% sodium azide, 1% bovine serum albumin (BSA: Hyclone Laboratories)). The number of viable cells was counted using trypan blue and 10⁶ cells/100 μl were added in an eppendorf tube.
(§3) To the cells prepared in (1) above was added the anti-human CD81 antibody (002-A07 or 005-001) prepared in Example 1 or a human IgG4 (Acris) as a control (0.1 μg), and the cells were incubated for 20 min at 4° C. […] The binding ratio (%) of the anti-human CD81 antibody to the cells was analyzed by flow cytometry using FACS Calibur (BD Biosciences) and calculated as the percentage of cells having a PE-derived fluorescent intensity greater than that observed when the control IgG4 is used. […]

[2] = target: T5, human CD81 on CD81-expressing cells …; test: flow cytometry, Jurkat E6.1 cells
Excerpt: as §2, §3

human CD81 mutant N172A = target: T6, human CD81 mutant N172A; test: ELISA

relative binding affinity (human CD81 mutant D137A) [%]	relative binding affinity (human CD81 mutant G158S) [%]	relative binding affinity (human CD81 mutant A164T) [%]	relative binding affinity (human CD81 mutant L165A) [%]	binding ratio to cells (%) [1] [%]	binding ratio to cells (%) [2] [%]	relative binding affinity (human CD81 mutant N172A) [%]	Binder
< 20	< 20	< 20	< 20	99	100		002-A07 IgG4 antibody (antibody, human IgG4 S228P, lambda light chain) heavy: not shown light: QSVLTQPPSASGTPGQRVTISCTGSTSNIGAGYDTHWYQQLPGTAPKLLIYGNSNRPSGVPDRFSGSKSGTSASLAISGLRSEDEADYYCQSYDTNLSVWVFGGGTKLTVLGQPKAAPSVTLFPPSSEELQANKATLVCLISDFYPGAVTVAWKADSSPVKAGVETTTPSKQSNNKYAASSYLSLTPEQWKSHRSYSCQVTHEGSTVEKTVAPTECS
						< 20	003-D07 (antibody, human IgG4 S228P, lambda, V domains shown, IgG4 S228P) VH: EVQLLESGGGLVQPGGSLRLSCAASGFTFSSNYMSWVRQAPGKGLEWVSYISSSSTYTDYADSVKGRFTISRDNSKNTLYLQMNSLRAEDTAVYYCARYSYDRDNFDYWGQGTLVTVSS VL: QSVLTQPFSASGTPGQRVTISCTGSTSNIGAGYDTHWYQHLPGTAPKLLIYGNSNRPSGVPDRFSGSKSGTSASLAISGLRSEDEADYYCQSYDTNLSVWVFGGGTKLTVLG
